Assay results published in patent publication US11739318B1, “Modified biosensors and biocatalysts and methods of use” (priority 2017, dated 2023).
Changes are numbered by the printed parent chain. In names and notes the source's numbering stands.

B1: PcaR-G5: PcaR variant for a low sensitivity BKA sensor, SEQ ID NO: 26 (protein)
chain: MSDETLGNDSGNAEVARPASAAMAPPIVASPAKRIQAFTGDPDFMTSLARGLAVIQAFQERKRHLTIAQISHRTEIPRAAVRRCLHTLIKLGYATTDGRTYSLLPKVLTLGHAYLSSTPLAISAQPYLDRISDQLHEAANMATLEGDDILYIARSATVERLISVDLSVGGRMPAYCTSMGRILLAAMDDTSLREYLERADLKARTSRTLNDPESLFACIQQVRAQGWCVVDQELEQGVRAIAVPVYDASGQVLAALSVSTHVGRVTRSELEQRFLPILLAASRDLCHQLFG
modifications: PcaR-G5
B2: PcaR-H6: PcaR variant for a low sensitivity BKA sensor, SEQ ID NO: 28 (protein)
chain: B1 chain with A240S
modifications: PcaR-H6
B3: PcaR-F6: PcaR variant for a low sensitivity BKA sensor, SEQ ID NO: 27 (protein)
chain: B1 chain with M172L, V238M, A240T
modifications: PcaR-F6
B4: UbiC_C21: E. coli UbiC variant with mutations M34V/I78V (protein, UniProt P26602 2-165, looked up, variant M34V I78V)
Chorismate pyruvate-lyase: SHPALTQLRALRYCKEIPALDPQLLDWLLLEDSVTKRFEQQGKTVSVTMIREGFVEQNEIPEELPLLPKESRYWLREVLLCADGEPWLAGRTVVPVSTLSGPELALQKLGKTPLGRYLFTSSTLTRDFIEIGRDAGLWGRRSRLRLSGKPLLLTELFLPASPLY
B5: UbiC_C11: E. coli UbiC variant with mutations E31Q/I78V/L80V (protein, UniProt P26602 2-165, looked up, variant E31Q I78V L80V)
Chorismate pyruvate-lyase: B4 Chorismate pyruvate-lyase with E31Q, V34M, L80V
B6: UbiC_C22: E. coli UbiC variant with mutations E31Q/M34V (protein, UniProt P26602 2-165, looked up, variant E31Q M34V)
Chorismate pyruvate-lyase: B4 Chorismate pyruvate-lyase with E31Q, V78I
B7: H115W/V346A: PON1 version that combines the two mutations H115W/V346A (protein, UniProt P27169 2-355, looked up, variant H115W V346A)
Serum …: AKLIALTLLGMGLALFRNHQSSYQTRLNALREVQPVELPNCNLVKGIETGSEDLEILPNGLAFISSGLKYPGIKSFNPNSPGKILLMDLNEEDPTVLELGITGSKFDVSSFNPWGISTFTDEDNAMYLLVVNHPDAKSTVELFKFQEEEKSLLHLKTIRHKLLPNLNDIVAVGPEHFYGTNDHYFLDPYLQSWEMYLGLAWSYVVYYSPSEVRVVAEGFDFANGINISPDGKYVYIAELLAHKIHVYEKHANWTLTPLKSLDFNTLVDNISVDPETGDLWVGCHPNGMKIFFYDSENPPASEVLRIQNILTEEPKVTQVYAENGTVLQGSTVASVYKGKLLIGTAFHKALYCEL

Experiments:
[1] = system: BKA; assay: BKA sensing with PcaR variants in high BKA producing strain NN7; assay type: cell-based, P. putida; conditions: strain NN7, LB background BKA production
Source text: Rosetta homology modeling, using a known structure of a transcription factor with a homologous sequence (PDB code 2G7U) was used to get a 3D estimate of the PcaR inducer binding domain. Based on the predicted structure, several amino acids in the pocket were identified to be suitable for mutagenesis. […] Positions N140, L161, L166, L172, M179, L234, L238, S240, N257 and S259 were mutated for diversification to achieve N/S/T/I at positions 140 and 257, L/M/V at positions 161, 166, 172, 179, 234 and 238, S/T/A at position 240 and 259. This produced a library of diversity>100,000. The library was transformed in high BKA producing strain where native pcaR gene was deleted (strain NN7) and screened for increase fluorescence response with increasing dose of precursors while in the LB mediated BKA production background.

[2] = UbiC enzyme kinetic parameters (pyruvate release coupled to lactate dehydrogenase, NADH oxidation at 340 nm); assay type: biochemical; conditions: sfGFP fused UbiC variants with C-terminal 6xHis tag, 30° C., pH 7.5; for Km: chorismate
Experimental: Enzyme expression and purification: 5 mL cultures were grown from the glycerol stocks of P. putida CJ182 containing plasmids encoding 6×His-tag UbiC variants. At an OD600 of ˜0.6, the cultures were induced with 1 mM 4HB and further grown for 16 h at 30° C. and 225 rpm shaking. The cultures were centrifuged at 3500×g for 10 min and the cell pellets were lysed with 500 μL BugBuster (Novagen) under slow shaking for 30 min. The cell lysates were centrifuged at 15,000×g for 15 min at 4° C. and the sfGFP-UbiC fusion proteins were purified by Affinity Chromatography using Talon beads (Clontech). For purification, the clarified supernatant for each UbiC variant was mixed with 200 μL Talon beads in an equilibration buffer (50 mM Tris-HCl, 300 mM NaCl, pH 7.5) for 30 min. The mixture was centrifuged at 2000×g, the supernatant was discarded and the pellet consisting of Talon beads with bound protein was washed two times with equilibration buffer containing 50 mM imidazole. Finally, the beads were mixed with elution buffer (50 mM Tris-HCl, 300 mM NaCl, 300 mM Imidazole, pH 7.5) and filtered through a spin column with 0.2 µm filter. The enzyme concentration and purity of the protein in the eluate were determined by absorbance at 280 nm using a Nanodrop (Thermo Scientific) and SDS polyacrylamide gel electrophoresis, respectively.
Determining enzyme kinetic parameters: The production of 4HB from chorismate catalyzed by UbiC is accompanied with release of a pyruvate molecule. […] The reactions were conducted in 96-well plate at 30° C. in the Synergy H4 Hybrid Microplate Reader (Biotek). The kinetic parameters and product inhibition constants were determined by measuring the initial reaction rates with respect to varying substrate and product concentrations and calculated using GraphPad Prism software.

[3] = system: P. putida CJ200; assay: Shake flask muconate production; assay type: cell-based; conditions: plasmid expressed, over CJ200 with no heterologous UbiC expression
Experimental: Shake flask experiments for muconate production: P. putida CJ200 transformed with pPobR_ubiC plasmids or with genomically integrated ubiC-C22 under PobR regulation (NP015) were grown in 125 mL baffled shake flasks containing 25 mL of 1×M9 salts (6.78 g/L Na2HPO4, 3 g/L KH2PO4, 0.5 g/L NaCl, 1 g/L NH4Cl), 30-50 mM glucose, 2 mM MgSO4, 100 μM CaCl2), 18 μM FeSO4, and 50 μg/mL kanamycin. Seed cultures were grown from glycerol stocks in LB media supplemented with 50 μg/mL kanamycin, for 16 hours, pelleted and washed with M9 growth medium and subcultured into flasks to a final OD600 of 0.05. Cultures were incubated at 30° C. and 225 rpm for up to 2 days. Samples were taken at regular intervals to quantify cell density, glucose consumption, and muconate concentration.
Quantification of glucose and muconate concentrations using High Performance Liquid Chromatography (HPLC): To measure muconate concentration, culture samples collected at various time points were centrifuged either at 3,500 rpm for 10 min or 16,000 rpm for 1 min. […] The samples were analyzed for 10 min on a Fast Acid column (Phenomenex Rezex RFQ-Fast Acid H+(8%)) using 0.01 N H2SO4 at a flow rate of 0.8 mL/min as a mobile phase. […] Alternatively, the samples were analyzed for 40 min on a SUPELCOGEL H Column (SUPELCO) with 0.1% H2SO4 at 0.5 mL/min. […]

[4] = system: pNP sensor; assay: Raw whole cell fluorescence with pNP sensor and sfGFP-PON1 under positive feedback regulation, flow cytometer; assay type: cell-based, E. coli; conditions: mean of duplicate cultures ± SD
Source text: FIGS. 16A-16D show ‘Catalyze’ and ‘sense’ system for hydrolysis reactions. […] UI: background fluorescence from cells without any pNP source to induce the TF; […]; pNP: TF induced by exogenously supplied pNP as a control/reference. […] Relative activity levels are distinguishable by eye.
The technique described here (referred to in this example as “smart microbial cells” or SMC; e.g., FIGS. 1A and 1B) allows for catalysis and sensing in the same microbial cell. For a practical library application, we simplified and improved the signal to noise ratio of the biosensor. This was achieved by gene fusing the PON1 to the GFP so that the TF is also regulating the catalytic enzyme expression as well (scheme shown in FIG. 1B). This fusion is expected to have three distinct effects. First, it provides positive feedback, such that more the activity, the more PON1 is expressed, and in turn further ‘feeds’ the activity. […] Second, feedback will amplify the already present correlation between activity and GFP expression. Third, for suitably chosen GFP, the fluorescence signal conveniently reports the amount of fused PON1 present, allowing normalization for specific activity.
. Based on the catalytic efficiency and the cytoplasmic concentration of the hydrolase, PXN hydrolysis results in a correlated pNP production inside the microbial cell that ultimately determines activation of the pNP sensor and accumulation of sfGFP in the cells. […] When pNP was used as an inducer, such that the expression of sfGFP-PON1 expression is independent of the catalytic efficiency of PON1, modest differences in cell fluorescence were still captured across the PON1 variants indicating V346A mutation could be detrimental to PON1 expression and stability (FIG. 16C, Table 6).

Molecule	fluorescence response with BKA precursors, catechol and PCA [1]	kcat [2]	Km [2]	also measured
B1	showed dose dependent response	–	–	–
B2	showed dose dependent response	–	–	–
B3	showed dose dependent response	–	–	–
B4	–	0.67 ± 0.06 s⁻¹	90.2 ± 7.8 µM	muconate yield increase [3]: ~130%
B5	–	0.51 ± 0.04 s⁻¹	54.7 ± 3.4 µM	–
B6	–	1.04 ± 0.09 s⁻¹	148 ± 9.4 µM	muconate yield increase [3]: ~130%
B7	–	–	–	Raw whole cell fluorescence intensity, PXN (1.6 mM) ([4]; exogenous paraoxon 1.6 mM): 2410 ± 669; Raw whole cell fluorescence intensity, pNP (200 μM) ([4]; induced with exogenous pNP 200 μM): 11484 ± 2032; Raw whole cell fluorescence intensity, UI ([4]; uninduced, no pNP source): 248 ± 36
